Measurements: patent US20240116985A1 (published 2024)
Starred links: 1 amine or outer side, 2 acyl side, 3 side chain; linkers in the order of their positions; H or OH if unused. Positions of bridges follow the written chain, without caps; N, C: chain ends. Non-standard residues stand in square brackets, D forms with d. Primed or numbered codes have the meaning given here. (CH2CMe2CO2H)TriAzDap = (S)-3-(1-(2-amino-2-carboxyethyl)-1H-1,2,3-triazol-4-yl)-2,2-dimethylpropanoic acid, CC(C)(Cc1cn(C[C@H](N[*:1])C(=O)[*:2])nn1)C(=O)[*:3]; (CMe2CO2H)TriAzDab = (S)-2-amino-4-(4-(2-carboxypropan-2-yl)-1H-1,2,3-triazol-1-yl)butanoic acid, CC(C)(C(=O)[*:3])c1cn(CC[C@H](N[*:1])C(=O)[*:2])nn1; (CMe2CO2H)TriAzDap = (S)-2-amino-3-(4-(2-carboxypropan-2-yl)-1H-1,2,3-triazol-1-yl)propanoic acid, CC(C)(C(=O)[*:3])c1cn(C[C@H](N[*:1])C(=O)[*:2])nn1; PyrS2″ = (S)-3-amino-1-((pent-4-en-1-yloxy)carbonyl)pyrrolidine-3-carboxylic acid (stapling residue), C=CCCCOC(=O)N1CC[C@@](N[*:1])(C(=O)[*:2])C1; (2COOHPh)TriAzDap = (S)-2-(1-(2-amino-2-carboxyethyl)-1H-1,2,3-triazol-4-yl)benzoic acid, O=C([C@H](Cn1cc(-c2ccccc2C(=O)[*:3])nn1)N[*:1])[*:2]; (CH2CH2CO2H)TriAzDap = (S)-2-amino-3-(4-(2-carboxyethyl)-1H-1,2,3-triazol-1-yl)propanoic acid, O=C([C@H](Cn1cc(CCC(=O)[*:3])nn1)N[*:1])[*:2]; (CH2CO2H)TriAzDap = (S)-2-amino-3-(4-(carboxymethyl)-1H-1,2,3-triazol-1-yl)propanoic acid, O=C([C@H](Cn1cc(CC(=O)[*:3])nn1)N[*:1])[*:2]; B5(4) = 2,2-bis(4-pentenyl)glycine = 2-amino-2-(pent-4-en-1-yl)hept-6-enoic acid (stitching residue), C=CCCCC(CCCC=C)(N[*:1])C(=O)[*:2]; (2COOH4NH2Ph)Dap = (S)-5-amino-2-((2-amino-2-carboxyethyl)amino)benzoic acid, Nc1ccc(NC[C@H](N[*:1])C(=O)[*:2])c(C(=O)[*:3])c1; (2COOHPh)TriAzDab = O=C([C@H](CCn1cc(-c2ccccc2C(=O)[*:3])nn1)N[*:1])[*:2]; Phe(3-COOH) = N[C@@H](Cc1cccc(C(=O)O)c1)C(=O)O; 2F3MeF = Cc1cccc(C[C@H](N[*:1])C(=O)[*:2])c1F; Phe(2-CF3) = N[C@@H](Cc1ccccc1C(F)(F)F)C(=O)O; Bta = N[C@@H](Cc1csc2ccccc12)C(=O)O; αAllylPro = C=CC[C@@]1(C(=O)O)CCCN1; tBuAla = CC(C)(C)C[C@H](N)C(=O)O; 3Thi = N[C@@H](Cc1ccsc1)C(=O)O; PyrS2(4) = not defined here

T1: Bcat-Halo (UniProt P35222 1-781)
T1 sequence (looked up): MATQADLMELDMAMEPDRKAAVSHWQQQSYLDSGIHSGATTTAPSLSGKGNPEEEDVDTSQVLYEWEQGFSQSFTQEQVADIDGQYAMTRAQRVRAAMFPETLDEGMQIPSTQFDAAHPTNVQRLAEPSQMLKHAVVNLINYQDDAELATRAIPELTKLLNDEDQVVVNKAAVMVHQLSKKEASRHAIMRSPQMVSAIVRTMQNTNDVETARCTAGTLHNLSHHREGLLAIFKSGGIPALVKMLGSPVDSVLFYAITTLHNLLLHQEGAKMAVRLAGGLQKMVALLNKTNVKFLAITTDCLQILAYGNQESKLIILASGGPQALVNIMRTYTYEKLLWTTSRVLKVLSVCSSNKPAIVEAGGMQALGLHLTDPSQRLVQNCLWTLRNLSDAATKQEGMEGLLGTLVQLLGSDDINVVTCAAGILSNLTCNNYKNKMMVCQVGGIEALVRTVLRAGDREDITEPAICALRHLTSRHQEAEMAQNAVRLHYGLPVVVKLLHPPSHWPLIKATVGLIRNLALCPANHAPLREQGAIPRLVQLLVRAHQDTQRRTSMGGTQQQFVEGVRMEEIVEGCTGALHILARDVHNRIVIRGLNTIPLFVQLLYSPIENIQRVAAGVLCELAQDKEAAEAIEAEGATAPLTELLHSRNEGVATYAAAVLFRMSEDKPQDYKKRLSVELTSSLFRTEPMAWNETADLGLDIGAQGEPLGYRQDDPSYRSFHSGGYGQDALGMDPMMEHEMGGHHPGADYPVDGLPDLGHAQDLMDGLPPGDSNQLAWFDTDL


Biological target: T1, Bcat-Halo
Assay: cell-based or functional assay

NanoBRET Abs IC50 | Binder
6.2 µM | Ac-[αAllylPro]D[tBuAla][B5(4)]D[(CMe2CO2H)TriAzDap]AAFL[PyrS2″][3Thi][Bta]Q-NH2 (staple 1-4, 4-11) [I-2085]
9.2 µM | Ac-[αAllylPro]D[tBuAla][B5(4)]D[(CH2CO2H)TriAzDap]AAFL[PyrS2″][3Thi][Bta]Q-NH2 (staple 1-4, 4-11) [I-2084]
5.9 µM | Ac-[αAllylPro]D[tBuAla][B5(4)]D[Phe(3-COOH)]AAFL[PyrS2(4)][3Thi][Bta][dA]-NH2 (staple 1-4, 4-11; reading uncertain) [I-2090]
4.4 µM | Ac-[αAllylPro]D[tBuAla][B5(4)]D[Phe(3-COOH)]AAFL[PyrS2″][3Thi][Bta][dQ]-NH2 (staple 1-4, 4-11) [I-2088]
11.6 µM | Ac-[αAllylPro]D[tBuAla][B5(4)]D[(2COOHPh)TriAzDab]AAFL[PyrS2(4)][3Thi][Bta]Q-NH2 (staple 1-4, 4-11; not fully specified; reading uncertain) [I-2081]
6.2 µM | Ac-[αAllylPro]D[tBuAla][B5(4)]D[Phe(3-COOH)]AAFL[PyrS2″][Phe(2-CF3)][Bta][dA]-NH2 (staple 1-4, 4-11) [I-2091]
15.1 µM | Ac-[αAllylPro]D[tBuAla][B5(4)]D[(CMe2CO2H)TriAzDab]AAFL[PyrS2″][3Thi][Bta]Q-NH2 (staple 1-4, 4-11) [I-2079]
16.4 µM | Ac-[αAllylPro]D[tBuAla][B5(4)]D[(2COOHPh)TriAzDap]AAFL[PyrS2″][3Thi][Bta]Q-NH2 (staple 1-4, 4-11) [I-2086]
6.5 µM | Ac-[αAllylPro]D[tBuAla][B5(4)]D[(2COOH4NH2Ph)Dap]AAFL[PyrS2″][3Thi][Bta]Q-NH2 (staple 1-4, 4-11) [I-2087]
5 µM | Ac-[αAllylPro]D[tBuAla][B5(4)]D[Phe(3-COOH)]AAFF[PyrS2″][Phe(2-CF3)][Bta][dQ]-NH2 (staple 1-4, 4-11) [I-2093]
4.4 µM | Ac-[αAllylPro]D[tBuAla][B5(4)]D[Phe(3-COOH)]AAFF[PyrS2″][3Thi][Bta][dQ]-NH2 (staple 1-4, 4-11) [I-2092]
3.7 µM | Ac-[αAllylPro]D[tBuAla][B5(4)]D[(CH2CMe2CO2H)TriAzDap]AAFL[PyrS2″][3Thi][Bta]Q-NH2 (staple 1-4, 4-11) [I-2083]
7.7 µM | Ac-[αAllylPro]D[tBuAla][B5(4)]D[(CH2CH2CO2H)TriAzDap]AAFL[PyrS2″][3Thi][Bta]Q-NH2 (staple 1-4, 4-11) [I-2082]
28.8 µM | Ac-[αAllylPro]D[tBuAla][B5(4)]D[(2COOHPh)TriAzDab]AAFL[PyrS2″][3Thi][Bta]Q-NH2 (staple 1-4, 4-11; not fully specified) [I-2080]
2.9 µM | Ac-[αAllylPro]D[tBuAla][B5(4)]D[Phe(3-COOH)]AAFL[PyrS2(4)][2F3MeF][Bta][dQ]-NH2 (staple 1-4, 4-11; reading uncertain) [I-2089]
